Laboratory results: patent US20130142788A1 (published 2013)
Residue numbers refer to the chain shown, from its start. Numbers in names are those of the source. Read-outs that look alike come from different tables or passages of the source. Blank lines part the entries; values can stand above or below the binder they belong to.

Key:
[1] = target: T1, recombinant mature dimeric myostatin (human and mouse (mature sequences 100% …, UniProt O08689 268-376)); assay: cell-based or functional assay
T1 sequence: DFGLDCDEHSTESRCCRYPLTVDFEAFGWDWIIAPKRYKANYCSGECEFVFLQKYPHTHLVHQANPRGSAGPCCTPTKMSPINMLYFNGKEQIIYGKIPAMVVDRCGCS

[2] = target: T1, recombinant mature dimeric myostatin; assay: Kinexa solution phase affinity
Procedure: Kinexa (Sapidyne Instruments) solution phase affinity was used to determine the overall affinity for a range of anti-myostatin molecules. Myostatin beads were prepared either by adsorption (polymethylmethacrylate beads-PMMA) or amine coupling (NHS-activated sepharose beads). The range of anti-myostatin molecules studied necessitated the generation of beads coated with different concentrations of myostatin. For the solution phase portion of the assay, a fixed concentration of antibody was incubated with a broad range of myostatin concentrations and allowed to reach equilibrium by incubation at r.t. for at least 2 h before analysis proceeded. The myostatin beads were then used to determine the amount of free antibody present in the solution phase samples, by means of the free antibody binding to the myostatin bead matrix then detected using an appropriate secondary antibody (either anti-human or anti-mouse depending on the construct being tested) labelled with a fluorescent dye. The binding curves where fitted using the Kinexa Pro analysis software inherent to the machine. Multiple runs using varying starting concentrations of antibody were then compiled and analysed using the n-curve analysis software to give a more accurate determination of affinity.

GDF-11 = target: T2, GDF-11 (UniProt O95390 299-407); assay: ELISA, growth factors coated at 0.5 µg/ml, H8L5 titrated
T2 construct: also called Growth and Differentiation Factor-11
T2 sequence (looked up): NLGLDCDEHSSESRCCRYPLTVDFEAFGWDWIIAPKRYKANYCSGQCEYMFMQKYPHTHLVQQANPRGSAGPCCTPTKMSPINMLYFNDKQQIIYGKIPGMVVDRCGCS
Procedure: An ELISA was performed to determine whether H8L5 might bind any other growth factors and especially other members of the TGF family which were known to share some homology around the proposed epitope sequence. By coating an ELISA plate with the various growth factors at 0.5 μg/ml and titrating in H8L5 under standard ELISA conditions, It was concluded that the only other factor tested to which H8L5 could bind was GDF-11 wherein the concentration required to give 50% binding was 3-fold lower than myostatin (FIG. 22).

Fc R 2a His polymorphism = target: T3, Fc R 2a His polymorphism (UniProt P12318 34-217, limits assumed); assay: ProteOn XPR36 SPR, antibody immobilised, receptor 8-2048 nM, equilibrium model
T3 construct: also called FcγRIIa His
T3 sequence (looked up): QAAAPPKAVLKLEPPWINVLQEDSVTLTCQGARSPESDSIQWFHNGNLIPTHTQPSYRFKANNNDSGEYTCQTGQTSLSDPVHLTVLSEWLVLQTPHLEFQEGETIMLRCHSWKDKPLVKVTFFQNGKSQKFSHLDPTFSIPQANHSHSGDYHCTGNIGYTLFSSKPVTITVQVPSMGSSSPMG
Procedure: (§1) Binding analysis to Fc R5 and C1q was carried out using the ProteOn XPR36. The test antibodies (H8L5 and Fc-disabled H8L5) were immobilised on a GLC biosensor chip by primary amine coupling. The Fc Rs were used at 2048 nM, 512 nM, 128 nM, 32 nM and 8 nM, while C1q was used at 512 nM, 128 nM, 32 nM, 8 nM and 2 nM. A buffer injection (i.e. 0 nM) was used to double reference the binding sensorgrams. Due to the nature of the interaction (i.e. fast on/fast-off) regeneration was not required and the binding sensorgrams returned to baseline by use of a 20 min dissociation time and subsequent buffer injections. The data was fitted to the Equilibrium model inherent to the PrateOn's analysis software, using a global R-max for each receptor group and for C1q binding (i.e. Fc R 2aHis and Arg polymorphisms were analysed together and Fc R3aPhe and Val polymorphisms were analysed together, while C1q was analysed separately).

Fc R 2a Arg polymorphism = target: T4, Fc R 2a Arg polymorphism (UniProt P12318 34-217, limits assumed); assay: as above
T4 construct: also called FcγRIIa Arg
T4 sequence (looked up): T3 sequence (looked up) with H134R
Procedure: as §1

Fc R3a Phe polymorphism = target: T5, Fc R3a Phe polymorphism (UniProt P08637 17-208, limits assumed); assay: as above
T5 construct: also called FcγRIIIa Phe
T5 sequence (P08637 17-208 limits assumed): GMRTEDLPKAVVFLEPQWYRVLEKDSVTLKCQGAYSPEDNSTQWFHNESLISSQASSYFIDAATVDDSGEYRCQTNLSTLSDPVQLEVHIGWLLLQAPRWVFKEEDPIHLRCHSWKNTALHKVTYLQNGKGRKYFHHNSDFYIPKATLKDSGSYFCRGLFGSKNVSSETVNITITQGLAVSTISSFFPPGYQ
Procedure: as §1

Fc R3a Val polymorphism = target: T6, Fc R3a Val polymorphism (UniProt P08637 17-208, limits assumed); assay: as above
T6 construct: also called FcγRIIIa Val
T6 sequence (P08637 17-208 F176V limits assumed): as the sequence (P08637 17-208 limits assumed) above, with F160V counted along it
Procedure: as §1

[3] = target: T1, recombinant mature dimeric myostatin; assay: ActRIIb neutralisation ELISA: inhibition of 2 nM biotinylated myostatin binding to coated ActRIIb
Procedure: Recombinant soluble ActRIIb (R&D Systems 339-RBB) was coated in wells of an ELISA plate at 1 μg/ml in carbonate buffer overnight at 4° C. Plates were blocked with PBS containing 0.1% tween 20 and 0.1% BSA and washed following standard ELISA protocols. In parallel, 2 nM biotinylated myostatin (in-house reagent, described above) was pre-incubated with a dilution series of the antibodies of Tables 21 and 22 for 30 minutes at 37° C. The biotinylated myostatin:antibody reactions were then added (50 μl/well) to the ActRIIb coated plate for 1 hour at 37° C. Standard wash procedures were followed prior to addition of 50 μl per well of a 1:200 diluted streptavidin-HRP conjugate (R&D Systems. #890803) followed by a further 37° C. incubation for 1 hour. Plates were again washed and assayed at absorbance 490 nm following substrate (R&D Systems, #DY999) and acid stop solution treatment.

rhBMP6 = target: T7, rhBMP6 (human, UniProt P22004); assay: ELISA: plate coated with the growth factor at 0.5 µg/ml, H8L5 titrated; read-out % Bound
T7 construct: recombinant (rh); form not further stated; member of the growth factor panel m51, named only on the sheet
T7 sequence (looked up): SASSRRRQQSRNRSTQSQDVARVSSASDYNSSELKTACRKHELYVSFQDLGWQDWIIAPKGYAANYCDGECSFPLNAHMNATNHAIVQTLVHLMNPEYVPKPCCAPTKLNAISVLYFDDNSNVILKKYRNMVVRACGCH

rhBMP9 = target: T8, rhBMP9 (human, UniProt Q9UK05); assay: as above
T8 construct: recombinant (rh); form not further stated; member of the growth factor panel m51, named only on the sheet
T8 sequence (looked up): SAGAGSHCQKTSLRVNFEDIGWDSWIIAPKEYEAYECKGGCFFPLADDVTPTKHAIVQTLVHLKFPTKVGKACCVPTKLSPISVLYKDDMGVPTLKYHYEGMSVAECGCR

[4] = target: T1, recombinant mature dimeric myostatin; assay: cell-based or functional assay; remark: listed apart in the source
[5] = target: T1, recombinant mature dimeric myostatin; assay: cell-based or functional assay; remark: listed apart in the source
[6] = target: T1, recombinant mature dimeric myostatin; assay: cell-based or functional assay; remark: listed apart in the source
[7] = target: T1, recombinant mature dimeric myostatin; assay: ELISA, myostatin coated at 10 ng/well
Procedure: 10B3 and 10B3 chimera (10B3C) bound myostatin (R&D Systems, 788-G8-010/CF) in a sandwich ELISA. Plates were coated with myostatin at 10 ng/well and blocked with Block solution (PBS, 0.1% TWEEN and 1% BSA). Following washing (PBS, 0.1% TWEEN), antibody was incubated at 37° C. for 2 hours over a dilution series and plates washed again prior to incubation at 37° C. for 1 hour with anti-mouse HRP or anti-human HRP (Dako, P0161 & Sigma, A-8400, respectively). Plates were again washed and OPD substrate (Sigma, P9187) added until colourometric reaction occurred and the reaction stopped by the addition of H₂SO₄.

[8] = target: T1, recombinant mature dimeric myostatin; assay: BIAcore T100 SPR, antibody captured on protein A, myostatin analyte, all curves 1:1 model
Procedure: (§2) The affinity of 10B3 mouse parental and 10B3C for recombinant myostatin was assessed by BIAcore™ (surface plasmon resonance) analysis. Analysis was carried out by the use of a capture surface: anti-mouse IgG was coupled to a C1 chip by primary amine coupling for 10B3 mouse parental; and a protein A surface was created on a C1 chip by primary amine coupling for 10B3 chimera.
(§3) After capture, recombinant myostatin was passed over the surface at 64 nM, 16 nM, 4 nM, 1 nM, 0.25 nM and 0.0625 nM, with a buffer injection (i.e. 0 nM) used for double referencing. There was a regeneration step between each analyte injection, after which the new antibody capture event occurred before the next injection of myostatin. The data was analysed using both the 1:1 model and the Bivalent model inherent to the T100 machines analysis software (see Table 6). Both capture surfaces could be regenerated using 100 mM phosphoric acid, the work was carried out using HBS-EP as the running buffer and using 25° C. as the analysis temperature.

[9] = target: T1, recombinant mature dimeric myostatin; assay: BIAcore T100 SPR, antibody captured on protein A, myostatin analyte, all curves Bivalent model
Procedure: as §2, §3

[10] = target: T1, recombinant mature dimeric myostatin; assay: ActRIIb receptor neutralisation ELISA: antibody pre-incubated with 2 nM biotinylated myostatin, binding to coated ActRIIb
Procedure: Recombinant soluble ActRIIb (R&D Systems 339-RBB) was coated in wells of an ELISA plate at 1 μg/ml in carbonate buffer overnight at 4° C. Plates were blocked (see Block solution above at 2.3) and washed following standard ELISA protocols. In parallel, 2 nM biotinylated myostatin (in-house, as described in 1.1, biotinylated material) was pre-incubated with an antibody dilution series consisting of 10B3, 10B3C, and a negative control (IgG1 isotype control) for 2 hours at 37° C. The biotinylated myostatin:antibody reactions were then added to the ActRIIb coated plate for 1 hour at 37° C. Standard wash procedures were followed prior to addition of 1:1000 diluted streptavidin-HRP conjugate (Dako P0397) and a further 37° C. incubation for 1 hour. Plates were again washed and assayed at absorbance 490 nm following OPD substrate (Sigma) and acid stop solution treatment. Inhibition curves and IC50 values for the inhibition of myostatin activity are shown in FIG. 5 and Table 8 respectively.

- IC50, myostatin responsive reporter gene neutralisation assay (A204) [1]: 5 nM
- Kd [2]: 0.05 nM
- fold lower concentration required to give 50% binding than for myostatin (GDF-11): 3 fold
- binding result (Fc R 2a His polymorphism): binds
- binding result (Fc R 2a Arg polymorphism): binds
- binding result (Fc R3a Phe polymorphism): binds
- binding result (Fc R3a Val polymorphism): binds
- IC50 [3]: 0.101 nM
B1: H8L5 (antibody, IgG1)
heavy: not shown
light: DIQMTQSPSSLSASVGDRVTITCKASQDINSYLSWFQQKPGKAPKTLIYRANRLVDGVPSKFSGSGSGTDYTLTISSLQPEDFATYYCLQSDEFPLTFGQGTKLEIKRTVAAPSVFIFPPSDEQLKSGTASVVCLLNNFYPREAKVQWKVDNALQSGNSQESVTEQDSKDSTYSLSSTLTLSKADYEKHKVYACEVTHQGLSSPVTKSFNRGEC
notes: Humanised IgG1/kappa; also called 10B3H8L5; copies: 2 + 2
- binding result (rhBMP6): no binding (tested: 10^-7 (axis prints no unit))
- binding result (rhBMP9): no binding (tested: 10^-7 (axis prints no unit))

- binding result (Fc R 2a His polymorphism): binds
- binding result (Fc R 2a Arg polymorphism): binds
- binding result (Fc R3a Phe polymorphism): binds
- binding result (Fc R3a Val polymorphism): binds
B2: Fc-disabled H8L5 (antibody, IgG1)
heavy: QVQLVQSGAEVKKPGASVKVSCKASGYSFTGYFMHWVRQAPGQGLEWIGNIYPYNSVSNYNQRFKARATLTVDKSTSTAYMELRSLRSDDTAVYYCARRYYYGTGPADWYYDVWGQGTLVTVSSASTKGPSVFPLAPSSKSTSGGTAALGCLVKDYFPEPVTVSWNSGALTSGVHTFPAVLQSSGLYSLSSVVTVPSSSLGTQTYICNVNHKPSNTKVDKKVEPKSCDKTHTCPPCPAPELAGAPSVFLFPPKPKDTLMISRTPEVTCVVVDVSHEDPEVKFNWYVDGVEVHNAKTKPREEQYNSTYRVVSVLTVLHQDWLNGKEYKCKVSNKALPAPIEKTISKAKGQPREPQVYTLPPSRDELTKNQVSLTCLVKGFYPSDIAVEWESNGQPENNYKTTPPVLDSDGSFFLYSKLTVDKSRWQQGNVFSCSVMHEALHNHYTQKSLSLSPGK
light: B1 light
notes: hIgG1 Fc disabled (L235A, G237A, EU numbering); also called H8L5 disabled; H8disabledL5; copies: 2 + 2

- IC50, myostatin responsive reporter gene assay (A204 cells, luciferase) [4]: 6.2 nM
- Mean IC50, A204 in vitro activity assay [5]: 3.53 nM
- Mean IC50, A204 in vitro activity assay [6]: 3.57 nM
- Kd [2]: 0.548 nM
- EC50 [7]: 0.049 µg/mL
- Kd [8]: 0.088 nM
- Kd [9]: 3.6 nM
- IC50 [10]: 0.138 µg/mL
B3: 10B3 chimera (antibody, human IgG1, V domains shown)
VH: EVQLQQSGPELVKPGASVKISCKASGYSFTGYFMHWVKQSHGNILDWIGNIYPYNGVSNYNQRFKAKATLTVDKSSSTAYMELRSLTSEDSAVYYCARRYYYGTGPADWYFDVWGTGTLVTVSS
VL: DIKMTQSPSSMYASLRERVTITCKASQDINSYLSWFQQKPGKSPKTLIYRANRLVDGVPSRFSGSGSGQDYSLTISSLEYEDMGIYYCLQCDEFPLTFGAGTKLELKR
notes: 10B3 variable regions on human IgG1/k wild type constant regions; also called HCLC; HcLc
